Laboratory results as given in patent US20230407373A1 (priority 2020, published 2023).
Read-outs that look alike come from different tables or passages of the source.

B1: HNRNPH2: host protein, UniProt P55795 (protein, UniProt P55795 1-449, looked up)
Heterogeneous nuclear …: MMLSTEGREGFVVKVRGLPWSCSADEVMRFFSDCKIQNGTSGIRFIYTREGRPSGEAFVELESEEEVKLALKKDRETMGHRYVEVFKSNSVEMDWVLKHTGPNSPDTANDGFVRLRGLPFGCSKEEIVQFFSGLEIVPNGMTLPVDFQGRSTGEAFVQFASQEIAEKALKKHKERIGHRYIEIFKSSRAEVRTHYDPPRKLMAMQRPGPYDRPGAGRGYNSIGRGAGFERMRRGAYGGGYGGYDDYGGYNDGYGFGSDRFGRDLNYCFSGMSDHRYGDGGSSFQSTTGHCVHMRGLPYRATENDIYNFFSPLNPMRVHIEIGPDGRVTGEADVEFATHEDAVAAMAKDKANMQHRYVELFLNSTAGTSGGAYDHSYVELFLNSTAGASGGAYGSQMMGGMGLSNQSSYGGPASQQLSGGYGGGYGGQSSMSGYDQVLQENSSDYQSNLA
B2: TXN (protein, UniProt P10599 2-105, looked up)
Thioredoxin: VKQIESKTAFQEALDAAGDKLVVVDFSATWCGPCKMIKPFFHSLSEKYSNVIFLEVDVDDCQDVASECEVKCMPTFQFFKKGQKVGEFSGANKEKLEATINELV
B3: LRRC59 (protein, UniProt Q96AG4 1-307, looked up)
Leucine-rich …: MTKAGSKGGNLRDKLDGNELDLSLSDLNEVPVKELAALPKATILDLSCNKLTTLPSDFCGLTHLVKLDLSKNKLQQLPADFGRLVNLQHLDLLNNKLVTLPVSFAQLKNLKWLDLKDNPLDPVLAKVAGDCLDEKQCKQCANKVLQHMKAVQADQERERQRRLEVEREAEKKREAKQRAKEAQERELRKREKAEEKERRRKEYDALKAAKREQEKKPKKEANQAPKSKSGSRPRKPPPRKHTRSWAVLKLLLLLLLFGVAGGLVACRVTELQQQPLCTSVNTIYDNAVQGLRRHEILQWVLQTDSQQ
B4: XRN2: host protein, UniProt Q9H0D6 (protein, UniProt Q9H0D6 1-950, looked up)
5'-3' exoribonuclease 2: MGVPAFFRWLSRKYPSIIVNCVEEKPKECNGVKIPVDASKPNPNDVEFDNLYLDMNGIIHPCTHPEDKPAPKNEDEMMVAIFEYIDRLFSIVRPRRLLYMAIDGVAPRAKMNQQRSRRFRASKEGMEAAVEKQRVREEILAKGGFLPPEEIKERFDSNCITPGTEFMDNLAKCLRYYIADRLNNDPGWKNLTVILSDASAPGEGEHKIMDYIRRQRAQPNHDPNTHHCLCGADADLIMLGLATHEPNFTIIREEFKPNKPKPCGLCNQFGHEVKDCEGLPREKKGKHDELADSLPCAEGEFIFLRLNVLREYLERELTMASLPFTFDVERSIDDWVFMCFFVGNDFLPHLPSLEIRENAIDRLVNIYKNVVHKTGGYLTESGYVNLQRVQMIMLAVGEVEDSIFKKRKDDEDSFRRRQKEKRKRMKRDQPAFTPSGILTPHALGSRNSPGSQVASNPRQAAYEMRMQNNSSPSISPNTSFTSDGSPSPLGGIKRKAEDSDSEPEPEDNVRLWEAGWKQRYYKNKFDVDAADEKFRRKVVQSYVEGLCWVLRYYYQGCASWKWYYPFHYAPFASDFEGIADMPSDFEKGTKPFKPLEQLMGVFPAASGNFLPPSWRKLMSDPDSSIIDFYPEDFAIDLNGKKYAWQGVALLPFVDERRLRAALEEVYPDLTPEETRRNSLGGDVLFVGKHHPLHDFILELYQTGSTEPVEVPPELCHGIQGKFSLDEEAILPDQIVCSPVPMLRDLTQNTVVSINFKDPQFAEDYIFKAVMLPGARKPAAVLKPSDWEKSSNGRQWKPQLGFNRDRRPVHLDQAAFRTLGHVMPRGSGTGIYSNAAPPPVTYQGNLYRPLLRGQAQIPKLMSNMRPQDSWRGPPPLFQQQRFDRGVGAEPLLPWNRMLQTQNAAFQPNQYQMLAGPGGYPPRRDDRGGRQGYPREGRKYPLPPPSGRYNWN
B5: SRSF10 (protein, UniProt O75494 1-262, looked up)
Serine/arginine-rich splicing …: MSRYLRPPNTSLFVRNVADDTRSEDLRREFGRYGPIVDVYVPLDFYTRRPRGFAYVQFEDVRDAEDALHNLDRKWICGRQIEIQFAQGDRKTPNQMKAKEGRNVYSSSRYDDYDRYRRSRSRSYERRRSRSRSFDYNYRRSYSPRNSRPTGRPRRSRSHSDNDRFKHRNRSFSRSKSNSRSRSKSQPKKEMKAKSRSRSASHTKTRGTSKTDSKTHYKSGSRYEKESRKKEPPRSKSQSRSQSRSRSKSRSRSWTSPKSSGH
B6: EIF2AK2 (protein, UniProt P19525 2-551, looked up)
Interferon-induced, …: AGDLSAGFFMEELNTYRQKQGVVLKYQELPNSGPPHDRRFTFQVIIDGREFPEGEGRSKKEAKNAAAKLAVEILNKEKKAVSPLLLTTTNSSEGLSMGNYIGLINRIAQKKRLTVNYEQCASGVHGPEGFHYKCKMGQKEYSIGTGSTKQEAKQLAAKLAYLQILSEETSVKSDYLSSGSFATTCESQSNSLVTSTLASESSSEGDFSADTSEINSNSDSLNSSSLLMNGLRNNQRKAKRSLAPRFDLPDMKETKYTVDKRFGMDFKEIELIGSGGFGQVFKAKHRIDGKTYVIKRVKYNNEKAEREVKALAKLDHVNIVHYNGCWDGFDYDPETSDDSLESSDYDPENSKNSSRSKTKCLFIQMEFCDKGTLEQWIEKRRGEKLDKVLALELFEQITKGVDYIHSKKLIHRDLKPSNIFLVDTKQVKIGDFGLVTSLKNDGKRTRSKGTLRYMSPEQISSQDYGKEVDLYALGLILAELLHVCDTAFETSKFFTDLRDGIISDIFDKKEKTLLQKLLSKKPEDRPNTSEILRTLTVWKKSPEKNERHTC

How the values were obtained:
HCoV-OC43 gRNA and sgRNA = assay type: binding; conditions: for target (unweighted spectral count, OC43 Probe II capture): FDR<10%; for target (unweighted spectral count, OC43 Probe II) / background (unweighted spectral count, no-probe control): type n_48_v, 48 hpi; for target (unweighted spectral count, OC43 Probe II): OC43 Probe II capture on infected cells; for background (unweighted spectral count, no-probe control): no-probe control on infected cells
gRNA of HCoV-OC43 = assay type: binding; conditions: for target (spectral count) / background (spectral count): type g_36_m, 36 hpi, Probe I; for target (spectral count): HCoV-OC43-infected HCT-8 cells; for background (spectral count): uninfected-probe control; for target (spectral count, OC43 Probe I RNP capture) / background (spectral count, no-probe control): type n_48_v: 48 hours post-infection; for target (spectral count, OC43 Probe I RNP capture): infected cells, unweighted spectral count; for background (spectral count, no-probe control): no-probe control on infected cells
[1] = 36 hpi, type n_36_v, tested against no-probe control

Molecule | target (unweighted spectral count, OC43 Probe II capture) (HCoV-OC43 gRNA and sgRNA; 24 hpi, type n_24_v, tested against no-probe control) | target (unweighted spectral count, OC43 Probe II capture) (HCoV-OC43 gRNA and sgRNA; [1]) | target (unweighted spectral count, OC43 Probe II) (HCoV-OC43 gRNA and sgRNA) | background (unweighted spectral count, no-probe control) (HCoV-OC43 gRNA and sgRNA) | target (spectral count) (HCoV-OC43 gRNA and sgRNA; type s_36_m, HCoV-OC43-infected HCT-8 cells, 36 hpi, Probe II) | background (spectral count) (HCoV-OC43 gRNA and sgRNA; type s_36_m, uninfected-probe control, 36 hpi, Probe II) | target (spectral count) (gRNA of HCoV-OC43) | background (spectral count) (gRNA of HCoV-OC43) | target (spectral count, OC43 Probe I RNP capture) (gRNA of HCoV-OC43) | background (spectral count, no-probe control) (gRNA of HCoV-OC43) | target (unweighted spectral count) (HCoV-OC43 gRNA and sgRNA; OC43 Probe II, 24 hpi (type n_24_v), infected cells, tested against no-probe control)
B1 | 4 | 8 | 10 | 1 | 8 | 1 | 12 | 1 | 10 | 1 | 
B2 |  | 6 |  |  |  |  |  |  | 8 | 1 | 
B3 |  | 6 | 5 | 1 |  |  |  |  | 9 | 1 | 
B4 |  |  | 10 | 1 |  |  | 8 | 1 | 9 | 1 | 
B5 |  | 6 | 9 | 1 |  |  |  |  | 9 | 1 | 6
B6 |  | 4 | 8 | 1 |  |  |  |  | 8 | 1 | 
